1 molecule from US20170137467A1 (CHROMOTEK, published 2017) can be followed below.

Square brackets hold non-standard residues; d marks the D form. GABA = NCCCC(=O)O

Assay in all cases: peptide library pulldown on immobilized Nb, LC-MS of supernatant; ratio vs GFP-Nb control (1 = not captured, 0 = captured)
One experiment has as its target T1, BC2T H9F library peptide (human).
T1 peptide: Ac-PDRKAAVSFWQQ-NH2
From the text: (§1) In total, 12 different BC2T libraries displaying all 20 proteinogenic amino acids in one single position of the peptide were used in immunoprecipitation experiments. […] The direct comparison with the GFP-Nb made it possible to determine the quantitative degree of peptide capture without the need of labeled standards. […] The more peptide was captured the more the value approximates 0. It was not possible to discriminate between isoleucine (I) and leucine (L) peptide versions since these peptides are isobaric.
(§2) To investigate the binding specificity of the BC2T and derived mutants peptide libraries for each amino acid position of the sequence […] (SEQ ID NO:4) were synthesized with acetyl and amide groups located at the N-termini or C-termini respectively (Intavis). […] Incubations were performed in 300 μl PBS/0.01% CHAPS for 1 h on a HulaMixer (Life Technologies). Subsequent to a centrifugation step 10 μl supernatant were analyzed in a LC-MS procedure. Peptides were separated using an UltiMate3000 RSLCnano System (Thermo Scientific), composed of a C18 PepMap100μ-Precolumn (300 μm×5 mm; particle size: 5 μm; pore size: 100 Å—Thermo Scientific) and a C18 analytical column (Acclaim Rapid Separation LC (RSLC) Column: 150 mm×5 mm; particle size: 2.2 μm; pore size: 100 Å—Thermo Scientific). A step gradient was applied starting at 8% and ending after 20 min at 30% eluent B (80% acetonitrile, 20% H₂O, 0.1% formic acid).

Experiment [1] has as its target T2, BC2T W10V library peptide (human).
T2 construct: also called BC2TW10X: V
T2 peptide: Ac-PDRKAAVSHVQQ-NH2
From the text: as §1, §2

For the next experiment, the target named is T3, BC2T H9V library peptide (human).
T3 peptide: Ac-PDRKAAVSVWQQ-NH2
From the text: as §1, §2

The target in a further experiment is T4, BC2T S8K library peptide (human).
T4 construct: also called BC2TS8X: K
T4 peptide: Ac-PDRKAAVKHWQQ-NH2
From the text: as §1, §2

A further experiment deals with T5, BC2T S8H library peptide (human).
T5 construct: also called BC2TS8X: H
T5 peptide: Ac-PDRKAAVHHWQQ-NH2
From the text: as §1, §2

The next experiment concerns the target T6, BC2T H9G library peptide (human).
T6 peptide: Ac-PDRKAAVSGWQQ-NH2
From the text: as §1, §2

For the next experiment, the target named is T7, BC2T H9D library peptide (human).
T7 peptide: Ac-PDRKAAVSDWQQ-NH2
From the text: as §1, §2

Experiment [2] addresses T8, BC2T Q11C* library peptide (human, SMILES …).
T8 construct: also called C(Abu)
T8 peptide: Ac-PDRKAAVSHW[GABA]Q-NH2
From the text: as §1, §2

The next experiment has as its target T9, BC2T S8Q library peptide (human).
T9 construct: also called BC2TS8X: Q
T9 peptide: Ac-PDRKAAVQHWQQ-NH2
From the text: as §1, §2

The target of experiment [3] is T10, BC2T W10(I/L) library peptide, version 2 (N-terminal acetyl, C-terminal amide).
T10 construct: Ile and Leu versions are isobaric; two versions resolved but not assigned; also called BC2TW10X: I/L2
From the text: as §1, §2

Experiment [4] has as its target T11, BC2T H9(I/L) library peptide, version 2 (N-terminal acetyl, C-terminal amide).
T11 construct: Ile and Leu versions are isobaric; two versions resolved but not assigned; also called I/L2
From the text: as §1, §2

The target in experiment [5] is T12, BC2T W10K library peptide (human).
T12 construct: also called BC2TW10X: K
T12 peptide: Ac-PDRKAAVSHKQQ-NH2
From the text: as §1, §2

For another experiment, the target named is T13, BC2T H9N library peptide (human).
T13 peptide: Ac-PDRKAAVSNWQQ-NH2
From the text: as §1, §2

Experiment [6] deals with T14, BC2T W10N library peptide (human).
T14 construct: also called BC2TW10X: N
T14 peptide: Ac-PDRKAAVSHNQQ-NH2
From the text: as §1, §2

The target in experiment [7] is T15, BC2T Q11(I/L) library peptide, version 2 (N-terminal acetyl, C-terminal amide).
T15 construct: Ile and Leu versions are isobaric; two versions resolved but not assigned; also called I/L2
From the text: as §1, §2

In a further experiment the target is T16, BC2T H9R library peptide (human).
T16 peptide: Ac-PDRKAAVSRWQQ-NH2
From the text: as §1, §2

Experiment [8] has as its target T17, BC2T Q12Y library peptide (human).
T17 peptide: Ac-PDRKAAVSHWQY-NH2
From the text: as §1, §2

Experiment [9] has as its target T18, BC2T Q12G library peptide (human).
T18 peptide: Ac-PDRKAAVSHWQG-NH2
From the text: as §1, §2

Experiment [10] addresses T19, BC2T W10S library peptide (human).
T19 construct: also called BC2TW10X: S
T19 peptide: Ac-PDRKAAVSHSQQ-NH2
From the text: as §1, §2

B1: BC2-Nb(R106E) (VHH)
VHH: QVQLVESGGGLVQPGGSLTLSCTASGFTLDHYDIGWFRQAPGKEREGVSCINNSDDDTYYADSVKGRFTIFMDNAKDTVYLQMNSLKPEDTAIYYCAEARGCKRGEYEYDFWGQGTQVTVSS
notes: Headlock mutant; immobilized on beads in the library pulldown
Take B1: the ratio stood at 0.2 with BC2T H9F library peptide; 1 in [1]; 0.5 with BC2T H9V library peptide; 0.9 in the experiment with BC2T S8K library peptide; 0.9 in the experiment with BC2T S8H library peptide; 0.7 with BC2T H9G library peptide. Besides, the ratio with BC2T H9D library peptide turned out to be 0.4; in experiment [2], 0.2; with BC2T S8Q library peptide, 0.9; in experiment [3], 1; in experiment [4], 0.2; in experiment [5] it was 1.3. In addition, the ratio with BC2T H9N library peptide is 0.2; in experiment [6] it was 1.2; in experiment [7], 0.4; with BC2T H9R library peptide, 0.1; in experiment [8], 0.2; in experiment [9] it was 0.2. In addition, the ratio in experiment [10] came out at 1.2.
